Results published in the nanobody polyreactivity screen of Harvey et al. (2022).

Test: yeast display, Sf9 membrane polyspecificity reagent, FACS + sequencing; frameworks hold sequencing errors
How it was run: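 Galactose induction of a Saccharomyces cerevisiae BJ5465 synthetic nanobody display library ran 36–48 hours. The cells were then stained for 1 hour at 4 °C with 10% biotinylated, detergent-solubilized Sf9 membrane reagent, pulled down on streptavidin microbeads and FACS-sorted into low and high (top ~1%) gates on expression and reagent-binding fluorescence. Labels for polyreactivity follow the gate of origin.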

Sequence	polyreactivity (PSR sort gate)
QVQLVESGGGLVQAGGSLRLSCAASGSIYKYYAMGWYRQAPGKERELVAALTIGGITNYADSVKGGFTISRDNATNTVYLQMTSLKPEDPAVYYCATGVYYSAIVYGGYDYWGQGTQVTVSS	low polyreactivity
QVQLVESGGGLVQAGGSLRLSCAASGSIFRRNAMGWYRQAPGKERELVAAISQSGGSTYYADSVKGRFTISRDNAKNTVYLQMNSLKPEDTAVYYCAAKHRVYGTRGYGYDYWGQGTQVTVSS	high polyreactivity
QVQLVESGGGLVQAGGSLRLSCAASGCIFYINTMGWYRQAPGKERELVAAISQSGVGTSYADSVKGRFTISRDNAKNTVYLQMNSLIPEDTAVYYCATDFARSDVVERFDYWGQGTQVTVSS	low polyreactivity
QVQLVEAGGGLVQAGGSLRLSCAASGSIFFIYAMGWYRQAPGKERELVAAITSGDRTYYADSVKGRFTISRDNAKNTVYLQMNSLKPEDTAVYYCNADYYISYWGQGTQVTVSS	low polyreactivity
QVQLVESGGGLVKAGCSLRLRCAASGGTFSYYAMGLYRQAPGKERELVAAISRSSSRTYYADSVKGRFTISRDNAKNTVFLQMNSLKPEDTAVYYCAADRVSYSGRTPKGQRYDYWGQGTQVTVSS	high polyreactivity
QVQLVESGGGLVQAGGSLRLSCAASGRTFPNYAMGWYRQAPGKERELVAAITRGVRTHYADSVKGRFTISRDNAKNTVYLQLNSLKQEDTAVYYCARSYRSDGSRFGYWGQGTQVTVSS	low polyreactivity
QVQLVESGGGLVQAGGSLRLSCAASGSIFTYYAMGWYRQAPGKEREFVAAISRRGGSTYYADSVKGRFTISRDNAKNTVYLQMNSLKPEDTAVYYCAATYPYRGFYGIRSQFDYWGQGTQVTVSS	high polyreactivity
QVQLVESGGGLVQAGGSLRLSCAASGSIFRYYAMGWYRQAPGKERESVADITSSGGSTYYADSVKGRFTISRDNAKNTVYLQMNSLKPEDTAVSYCAREDNLRHQSDSRYDYWGQGTQVTVSS	low polyreactivity
QVQLVESGGGLVQAGGSLRLSCAASGFTFYYYAMGWYRQAPGKERELVAAISSGGRTNYADSVKGRFTISRDNAKNTVYLQMNSLKPEDTAVYYCAAQYRNYFPYRVVRQGVGYWGQGTQVTVSS	high polyreactivity
QVQLVESGGGLVQAGGSLRLSCAASGTTFGPNAMGWYRQAPGTERELVAAIRWRGGSTYYADSVQGRFTIARDNAKNTVYLQMNSLKPEDTAVYYCADTRYSWHNRVSRRHRYDYWGQGTQVTVSS	high polyreactivity
QVQLVESGGGLVQAGGSLRLSCAASGSTFGYYAMGWYRQAPGKERELVAAITSGGSTYYADSVKGRFTISRDNAKNTVYLQMNSLKPEDTAVYYCNRTYYWYWRYDYWGQGTQVTVSS	low polyreactivity
QDQLVESGGGLVQAGGSLRLSCDASGSIFPIYAMGWYRQAPGKERELVAAINRSGGSTYYADSVKGRFTISRDNAKNTVYLQMNSLKPEDTAVYYCKADYGYHNQLFWGYYGWSSDHWGQGTQVTVSS	low polyreactivity
QVQLVESGGGLVQAGGSLRLSCAASGSTLSAYVMGWYRQAPGKERELVAAISQSADSTYYADSVKGRFTILRDNAKNTVYLQMNSLKPEDTAVYYCAAEYPYIYRFDYWGQGTQVTVSS	low polyreactivity
QVQLVESGGGLVQAGGSLRLSCAASGSTFEIYVMGWYRQAPGKERELVAAISRVGNTSYADSVKGRFTISRDNAKNTVYLQMNSLKPEDTAVYYCAADAPSWYDRQYDYWGQGTQVTVSS	low polyreactivity
QVQLVESGGGLVQAGGSLRLSCAASGRIFDVYAMGWYRQAPGKERELVATITCSGGGTYYADSVKGRFTISRDNAKNSVYLQMNSLKPEDTAVYYCAADYYPTYAYYVSNVGYDYWGQGTQVTVSS	low polyreactivity
QVQLVESGGGLVHAGGSLRLSCAASGRIFVRYAMGWYRQAPGKERELVAAISSSGSSTYYADSVKGRFTISRDNAKNTVYLQMNSLKPEETAVYYCAAASVRYPRYEYWGQGTQVTVSS	high polyreactivity
QVQLVESGGGLVQAGGSLRLSCAASGFILLDYAMRWYRQAPGKERELVAAISWSGARTYYADSVKGRFTISRDNAKNTVYLQMNSLKPEDTAVYYCATRYRWTPYDYWGQGTQVTVSS	low polyreactivity
QVHLVESGGGLVQAGGSLRLSCAASGFIFLGNAMGGYRQAPGKERELVAAISSGGSTYADSVKGRFTISRDNAKNTVYLQMNSLKPEDTAVYYCAVDRAFRAQNYHEYDYWGQGTQVTVSS	low polyreactivity
QVQLVESGGGLVQAGGSLRLSCAASGSIFSGNAMGWYRQAPGKERELVAAISRSGGSTYYADSVKGRFTISRDNAKNTVYLQMNSLKPEDTAVYYCAAYRTHGPPRAIRFDYWGQGTQVTVSS	high polyreactivity
QVQLVESGGGLVQAGGSLRLSCAASGITLGRYAMGWYRQAPGKERALVAAIPRSGGSTYYADSVKGRFTISRDNAKNTVYLQMNSLKPEDTAVYYCNRRVYPTSDYDYWGQGTQVTVSS	high polyreactivity
QVQLVESGGGLVQAGGSLRLSCAASGSILKNNAMGWYRQAPGKERELVAAITYSSGSTYYADSVKGRFTISRDNAKNTVYLQMNILKPEDTAVYYCATDPEGSTGGGYEYWGQGTQVTVSS	low polyreactivity
QVQLVESGGGLVQAGGSLRLSCAASGSTFRDYAMGWYRQAPGKERELVASITSGSSTYADSVKGRFTISRDNAKNTVYLQMNCLKPEDTAVYYCNADGITSLPVPALDYWGQGTQVTVSS	low polyreactivity

Sequence	polyreactivity (PSR sort gate)
QVQLVESGGRLVQAGGILRLSCAASGSTSHYYAMGWSRQAPGKERELVASITCSGGSTYYADSVKGRFTISRDNAKNTVYLQMNSLKPEATAVYYCNAQERRVRDYDYWGQGTQVTVSS	low polyreactivity
QVQLVESGGGLVQAGGSLRLSCAASGSIFRYNAMGWYRQAPGKERELVASISISDGSTYYADSVKGRFTISRDNAKNTVYLQMNSLKPEDTAVYYCAARTRDFYYPYDYWGQGTQVTVSS	low polyreactivity
QVQLVESGGGLVQAGGSLRLSCAASGSTFIFNTMGWYRQAPGNERELVAAIRLSGGSTYYADSVKGRFTLSRDNAKYTVYLQMNSLKPEDTAVYYCARRLATRGHTYDYWGQGTQVTVSS	low polyreactivity
QVQLVESGGGLVQAGGSLRLSCAASGRTFYSYAMGWYRQAPGKERELVASISSGGGTNYADSVKGRFTISRDNAKNTVYLQMNSLKPEDTAVYYCAAKYWFFYPYDYWGQGTQVTVSS	low polyreactivity
QVQLVEYQGGLVQAGGSLRLSSAASGIIFDQYAMGWYRQAPGKEREVVAAITYSGGCTYYADSVNGRFTISRDNEKNTVYLQMNSLKPEDTAVYYCADLFGYSLYDAQYDYWGQGTQVTVSS	low polyreactivity
QVQMQESRGGLVQAGGSLRLSCAASGYISYLDFMGWYRQAPGKERELVAGITTGATTNYADSVKGRFTISRDNGKNIVYQQMNSLKPEDTAVYFCAVIGGDTRGHPYWGQGTQLTVSS	low polyreactivity
QVQLVESGGGLVQAGGSLRLSCAASGRTFRYYVMGWYRQAPGKERELVARISWSGARTYYADSVKGRFTISRDHAKNTVYLQMNSLKPEDTAVYYCAADNPYYYRRDYWGQGTQVTVSS	low polyreactivity
QVQLVESGGGLVQAGGSLRLSCAASGSTFRSNAMGWYRPAPGKERELVAAISSRVGTTYYADSVKGRFTISRDNAKNTVYLQMNSLKPEDTAVYYCAAQGWRYYRTVVPMDYWGQGTQVTVSS	low polyreactivity
QVQLVESGGGLVQAGGSLRLSCAASGFTFYSYAMGWYRPAPGKERELVAAISSGGSTKYADSVKGRFTISRDNAKNTVYLQMNSVKPEDTEVYYCAARYYRDYRWYTYAYDYWGQGTQVTVSS	high polyreactivity
QVQLVESGGGLVQAGGSLRLSCAASGSIFERYAMGWYRQAPGKERELVAAISWSGGRTYYADSVKGRFTISRDYAKNTFFLQMNSLNPEDTAVYYCARVVQPGSPIYDYWGQGTQVTVSS	high polyreactivity
QVQLVESGGGLVQAGGSLRLSCAASGRIFPYNVMGWYRPATGKERELVAAISWSGGRTYYADSVKGRFTISRDNAKNTVYLQMISLKPEDTAVYYCNTRTLVAMGYWGQGTQVTVSS	high polyreactivity
QVQLEESGGGLVQAGGSLRLSCAASGRIQYNAMGWYRQAPGKEREFVAAISWSGGTTYYADSVKGRFTISRDNAKNTVYLQMNSLKPEDTAVYYCATPYTHWGQGTQVTVSS	high polyreactivity
QVQLVESGGGLVQAGGSLGLSCAASGRTFTPYAMGWYRQAPGIERELVAAIDTSGGSTYADSVKGRFTMSRDNAKNTVYLQMNSLKQEDTAVYYCNVDSAWYPYETEDDWGQGTQVTVSS	low polyreactivity
QVQLVESGGGLVQAGGSLRLSCAASGLTFYTYAMGWYRQAPGKERELVAAISTNGGSTYADSVKGRFTISRDNAKNTVYLQMNSLKPEDTAVYYCAAVYRTTRYGYWGQGTQVTVSS	low polyreactivity
HVQLVESGGGLVQAGGSLRLSCAASGSSSAKYAMGWYRQAPGKERELVAAITSRADSTYYADSVKGRFTISRDNAKNTVYLQMNSLKPEDTAVYYCNVRITVYRSDVWYFIYDYWGQGTQVTVSS	low polyreactivity
QVQLVESGGGLVQAGGSLRLSCAASGRIIFTNAMGWYRQARGKERELVASISRGGVRTYYADSVKGRFTISRDNAKNTVYLQMNSLKPEDTAVYYCDKGYHLVLPPLPQYDYWGQGTQVTVSS	low polyreactivity
QVQLVESVGGLVQAGGSLRLSCSASGRTFAFYAMGWYRQAPGKVRELVASISSTGDRTYYADSVKGRFTISRDNAKNTVYLQMNSLIPEDTAVYYCAARWRYTYYYWGQGTQVTVSS	high polyreactivity
QVQLVESGGGLVQAGGSLRLSCAASGGTFPYYAMGWYRQAPGKERELVADISGTDGSTYYADSVKGRFTISRDNAKNTVYLQMNSLKPEDTAVYYCNAEPHWWYWDYDYWGQGTQVTVSS	high polyreactivity
QVQLVESGGGLVQAGGSLRLSCAASGRTFSSNTMGWYRQAPGKERELVAAITKSGANTYYADSVKGRFTISRDNAKNTVYLQMNSLKPEDTAVYYCAAPGKVQRYYYWGQGTQVTVSS	high polyreactivity
QVQLVESGGGLVQAGGSLRLSCAASGSIIGSYVMGWYRQAPGKERELVATITNGGSTYYADSVKGRFTISRDNAKNTVYLQMNSLKPEDTAVYYCAADGRGDLYVWPGIGGDYWGQGTQVTVSS	low polyreactivity
QVQLVESGGGLVQAGGSLRLSCTASGITSGSYAMGWYRQEPGKESELVAAISNSGSTYYADSVKGRFTISRDNAKNTVYLQMNSLKPEDTEVYYCAAVTVGGHRSHRSGRSDYWGQGTQVTVSS	low polyreactivity
